What all share (assay): cell-based or functional assay
Test [1] deals with spruce budworm C. fumiferana ultraspiracle receptor with deletion of the A/B transactivation domain (Cf ΔAB USP) (Choristoneura fumiferana).
The target in test [2] is full-length mosquito A. aegypti ultraspiracle receptor, b-form (AaUSPb) (Aedes aegypti).
Test [3] concerns the target full-length mosquito A. aegypti ultraspiracle receptor, a-form (AaUSPa) (Aedes aegypti).
The target in test [4] is D. melanogaster ultraspiracle receptor with deletion of the AB transactivation domain (Dm ΔAB USP) (Drosophila melanogaster) (UniProt P20153).
In test [5] the target is T1, full-length D. melanogaster ultraspiracle receptor (DmUSP) (Drosophila melanogaster).
T1 sequence (P20153 1-508, looked up): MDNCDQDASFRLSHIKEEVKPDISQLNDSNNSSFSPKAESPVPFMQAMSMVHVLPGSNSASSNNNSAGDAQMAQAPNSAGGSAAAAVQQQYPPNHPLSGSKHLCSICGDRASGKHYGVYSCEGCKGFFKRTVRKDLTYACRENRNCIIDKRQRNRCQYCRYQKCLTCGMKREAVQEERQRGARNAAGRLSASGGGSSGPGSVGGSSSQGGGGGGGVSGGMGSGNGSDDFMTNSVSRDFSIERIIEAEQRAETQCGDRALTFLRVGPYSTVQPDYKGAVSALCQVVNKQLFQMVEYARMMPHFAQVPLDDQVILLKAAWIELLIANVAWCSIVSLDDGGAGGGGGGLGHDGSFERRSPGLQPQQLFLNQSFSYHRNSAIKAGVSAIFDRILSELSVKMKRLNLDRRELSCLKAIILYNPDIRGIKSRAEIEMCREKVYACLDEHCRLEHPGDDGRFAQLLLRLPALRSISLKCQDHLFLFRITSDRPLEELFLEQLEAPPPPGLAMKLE

For test [6], the target named is mouse RXR γ (retinoid X receptor γ) (mouse) (UniProt P28705).
Test [7] addresses full-length spruce budworm C. fumiferana ultraspiracle receptor (CfUSP) (Choristoneura fumiferana).
Test [8] addresses mouse RXR β (retinoid X receptor β) (mouse) (UniProt P28704).
Test [9] addresses mosquito A. aegypti ultraspiracle receptor with deletion of the A/B transactivation domain (Aa ΔAB USP) (Aedes aegypti).
In test [10] the target is human RXR α (retinoid X receptor α) (human) (UniProt P19793).
Sequence of human RXR α (retinoid X receptor α) (human) (P19793 whole entry): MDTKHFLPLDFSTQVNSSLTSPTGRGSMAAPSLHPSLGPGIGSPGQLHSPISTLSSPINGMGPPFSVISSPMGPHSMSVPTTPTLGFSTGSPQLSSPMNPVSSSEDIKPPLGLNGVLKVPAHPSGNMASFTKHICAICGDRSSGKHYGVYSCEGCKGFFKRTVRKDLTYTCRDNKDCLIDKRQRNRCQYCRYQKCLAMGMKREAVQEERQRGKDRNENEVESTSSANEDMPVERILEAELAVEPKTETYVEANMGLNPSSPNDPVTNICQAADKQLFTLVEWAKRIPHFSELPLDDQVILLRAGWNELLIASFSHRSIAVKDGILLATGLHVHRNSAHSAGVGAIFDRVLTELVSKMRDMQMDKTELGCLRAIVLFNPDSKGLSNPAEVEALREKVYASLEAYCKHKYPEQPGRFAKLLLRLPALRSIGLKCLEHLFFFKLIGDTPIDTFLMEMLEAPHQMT

Sequence of mouse RXR γ (retinoid X receptor γ) (mouse) (P28705 whole entry): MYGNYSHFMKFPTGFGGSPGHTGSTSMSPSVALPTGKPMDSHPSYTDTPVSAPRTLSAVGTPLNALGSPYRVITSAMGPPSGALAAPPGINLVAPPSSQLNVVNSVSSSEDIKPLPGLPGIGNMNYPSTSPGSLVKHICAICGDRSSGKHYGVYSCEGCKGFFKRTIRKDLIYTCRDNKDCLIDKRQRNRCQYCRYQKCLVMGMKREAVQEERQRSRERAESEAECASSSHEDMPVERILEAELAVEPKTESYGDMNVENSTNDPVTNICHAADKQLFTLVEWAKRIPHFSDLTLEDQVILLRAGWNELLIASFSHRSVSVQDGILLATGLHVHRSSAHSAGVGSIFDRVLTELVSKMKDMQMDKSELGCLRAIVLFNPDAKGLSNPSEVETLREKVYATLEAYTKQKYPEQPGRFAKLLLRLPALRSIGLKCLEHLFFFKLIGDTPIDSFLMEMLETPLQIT
Sequence of mouse RXR β (retinoid X receptor β) (mouse) (P28704 111-520 limits assumed): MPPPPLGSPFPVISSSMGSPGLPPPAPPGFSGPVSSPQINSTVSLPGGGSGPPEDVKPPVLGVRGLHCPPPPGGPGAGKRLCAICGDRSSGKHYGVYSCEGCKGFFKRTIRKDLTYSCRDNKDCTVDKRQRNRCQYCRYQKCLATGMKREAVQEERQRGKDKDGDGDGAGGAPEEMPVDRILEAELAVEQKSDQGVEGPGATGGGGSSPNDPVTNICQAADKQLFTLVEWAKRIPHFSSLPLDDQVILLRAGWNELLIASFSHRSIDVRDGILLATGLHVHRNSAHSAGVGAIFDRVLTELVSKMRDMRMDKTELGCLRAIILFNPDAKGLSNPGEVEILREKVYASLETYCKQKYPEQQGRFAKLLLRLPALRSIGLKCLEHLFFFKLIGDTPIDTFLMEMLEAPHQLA

Regarding “N-terminal truncated D. melanogaster EcR B-1 ecdysone receptor (Dm ΔN EcR) (from UniProt P34021 221-878)”, the β-galactosidase activity (yeast 6x EcRE-lacZ reporter), DMSO, with GRIP1 worked out at 0.235 in [1]; 0.251 in test [2]; 0.243 in test [3]; 0.34 in test [4]; 0.424 in [5]; 0.364 in test [6]. Moreover, the β-galactosidase activity (yeast 6x EcRE-lacZ reporter), DMSO, with GRIP1 in [7] was determined as 1.15. Also, the β-galactosidase activity (yeast 6x EcRE-lacZ reporter), RH 5992 10 µM, with GRIP1 in test [1] was 0.59; in [2], 2.07; in test [3], 1.86; in [4] it was 2.32; in test [5], 2.54; in test [6], 1.28. The molecule further came in with a β-galactosidase activity (yeast 6x EcRE-lacZ reporter), RH 5992 10 µM, with GRIP1 in [7] of 1.41. In test [5], the β-galactosidase activity (yeast 6x EcRE-lacZ reporter), DMSO, without GRIP1 amounted to 0.152. In test [5], this molecule registered a β-galactosidase activity (yeast 6x EcRE-lacZ reporter), RH 5992 10 µM, without GRIP1 of 0.182.
In [2], “full-length mosquito A. aegypti ecdysone receptor (AaEcR) (from UniProt P49880 1-776)” returned a β-galactosidase activity (yeast 6x EcRE-lacZ reporter), DMSO, without GRIP1 of 3 and a β-galactosidase activity (yeast 6x EcRE-lacZ reporter), RH 5992 10 µM, without GRIP1 of 2.7. In test [3], the β-galactosidase activity (yeast 6x EcRE-lacZ reporter), DMSO, without GRIP1 came to 2.3 and the β-galactosidase activity (yeast 6x EcRE-lacZ reporter), RH 5992 10 µM, without GRIP1 amounted to 2.45.
As to “full-length spruce budworm C. fumiferana ecdysone receptor (CfEcR)”, in test [1], the β-galactosidase activity (yeast 6x EcRE-lacZ reporter), DMSO, with GRIP1 came to 0.223; the β-galactosidase activity (yeast 6x EcRE-lacZ reporter), DMSO, without GRIP1 was 0.205; the β-galactosidase activity (yeast 6x EcRE-lacZ reporter), RH 5992 10 µM, with GRIP1 was 0.492; the β-galactosidase activity (yeast 6x EcRE-lacZ reporter), RH 5992 10 µM, without GRIP1 is 0.241. In test [7], this molecule had a β-galactosidase activity (yeast 6x EcRE-lacZ reporter), DMSO, without GRIP1 of 2.73 and a β-galactosidase activity (yeast 6x EcRE-lacZ reporter), RH 5992 10 µM, without GRIP1 of 3.
Regarding “mosquito A. aegypti ecdysone receptor with deletion of the A/B transactivation domain (Aa ΔAB EcR) (from UniProt P49880 285-776)”, the β-galactosidase activity (yeast 6x EcRE-lacZ reporter), DMSO, with GRIP1 in [8] stood at 0.231; in test [9], 0.194; in test [1] it was 0.25; in test [2] it was 0.24; in test [3], 0.272; in test [6], 0.496. Further, the β-galactosidase activity (yeast 6x EcRE-lacZ reporter), DMSO, with GRIP1 in test [10] was found to be 0.544. In addition, the β-galactosidase activity (yeast 6x EcRE-lacZ reporter), RH 5992 10 µM, with GRIP1 in test [8] is 1.98; in test [9], 1.37; in [1] it was 3; in test [2], 2.07; in test [3], 2.03; in test [6], 2.67. Also, the β-galactosidase activity (yeast 6x EcRE-lacZ reporter), RH 5992 10 µM, with GRIP1 in test [10] was 2.03. The values for the β-galactosidase activity (yeast 6x EcRE-lacZ reporter), DMSO, without GRIP1 in [9], in [2] and in test [3] were 0.187, 0.177 and 0.194, respectively. The β-galactosidase activity (yeast 6x EcRE-lacZ reporter), RH 5992 10 µM, without GRIP1 was found to be 0.196 in test [9], 0.184 in test [2] and 0.209 in [3].
In test [8], “spruce budworm C. fumiferana ecdysone receptor with deletion of the AB transactivation domain (Cf ΔAB EcR)” gave a β-galactosidase activity (yeast 6x EcRE-lacZ reporter), DMSO, with GRIP1 of 0.205 and a β-galactosidase activity (yeast 6x EcRE-lacZ reporter), RH 5992 10 µM, with GRIP1 of 0.456. Also, in [1], the β-galactosidase activity (yeast 6x EcRE-lacZ reporter), DMSO, with GRIP1 turned out to be 0.2; the β-galactosidase activity (yeast 6x EcRE-lacZ reporter), DMSO, without GRIP1 worked out at 0.209; the β-galactosidase activity (yeast 6x EcRE-lacZ reporter), RH 5992 10 µM, with GRIP1 came out at 2.5; the β-galactosidase activity (yeast 6x EcRE-lacZ reporter), RH 5992 10 µM, with GRIP1 (Table 4 prints another value than Table 3 for this combination) turned out to be 3. The same molecule came in with a β-galactosidase activity (yeast 6x EcRE-lacZ reporter), RH 5992 10 µM, without GRIP1 in [1] of 0.234. For the same molecule, in [6], the β-galactosidase activity (yeast 6x EcRE-lacZ reporter), DMSO, with GRIP1 came to 0.2 and the β-galactosidase activity (yeast 6x EcRE-lacZ reporter), RH 5992 10 µM, with GRIP1 stood at 1.03. Also, in test [7], the β-galactosidase activity (yeast 6x EcRE-lacZ reporter), DMSO, without GRIP1 is 2.68 and the β-galactosidase activity (yeast 6x EcRE-lacZ reporter), RH 5992 10 µM, without GRIP1 was determined as 3. In addition, in [10], the β-galactosidase activity (yeast 6x EcRE-lacZ reporter), DMSO, with GRIP1 came to 0.27 and the β-galactosidase activity (yeast 6x EcRE-lacZ reporter), RH 5992 10 µM, with GRIP1 was determined as 2.06.

B1: full-length D. melanogaster EcR B-1 ecdysone receptor (receptor, Drosophila melanogaster, UniProt P34021 1-878, looked up)
chain: MKRRWSNNGGFMRLPEESSSEVTSSSNGLVLPSGVNMSPSSLDSHDYCDQDLWLCGNESGSFGGSNGHGLSQQQQSVITLAMHGCSSTLPAQTTIIPINGNANGNGGSTNGQYVPGATNLGALANGMLNGGFNGMQQQIQNGHGLINSTTPSTPTTPLHLQQNLGGAGGGGIGGMGILHHANGTPNGLIGVVGGGGGVGLGVGGGGVGGLGMQHTPRSDSVNSISSGRDDLSPSSSLNGYSANESCDAKKSKKGPAPRVQEELCLVCGDRASGYHYNALTCEGCKGFFRRSVTKSAVYCCKFGRACEMDMYMRRKCQECRLKKCLAVGMRPECVVPENQCAMKRREKKAQKEKDKMTTSPSSQHGGNGSLASGGGQDFVKKEILDLMTCEPPQHATIPLLPDEILAKCQARNIPSLTYNQLAVIYKLIWYQDGYEQPSEEDLRRIMSQPDENESQTDVSFRHITEITILTVQLIVEFAKGLPAFTKIPQEDQITLLKACSSEVMMLRMARRYDHSSDSIFFANNRSYTRDSYKMAGMADNIEDLLHFCRQMFSMKVDNVEYALLTAIVIFSDRPGLEKAQLVEAIQSYYIDTLRIYILNRHCGDSMSLVFYAKLLSILTELRTLGNQNAEMCFSLKLKNRKLPKFLEEIWDVHAIPPSVQSHLQITQEENERLERAERMRASVGGAITAGIDCDSASTSAAAAAAQHQPQPQPQPQPSSLTQNDSQHQTQPQLQPQLPPQLQGQLQPQLQPQLQTQLQPQIQPQPQLLPVSAPVPASVTAPGSLSAVSTSSEYMGGSAAIGPITPATTSSITAAVTASSTTSAVPMGNGVGVGVGVGGNVSMYANAQTAMALMGVALHSHQEQLIGGVAVKSEHSTTA
For B1, in test [5], the β-galactosidase activity (yeast 6x EcRE-lacZ reporter), DMSO, without GRIP1 came out at 2.09 and the β-galactosidase activity (yeast 6x EcRE-lacZ reporter), RH 5992 10 µM, without GRIP1 came to 1.95.

The record behind these values is patent US7037656B2, “Methods and compositions for identifying ligands for nuclear receptors” (priority 2000, dated 2006).
